Data from PMC8642528.

Target: Myeloid-associated differentiation marker (human) (human (endogenous in blood eosinophils of asthmatic volunteers)) (UniProt Q96S97)
Chain of UniProt Q96S97 (Q96S97 whole entry): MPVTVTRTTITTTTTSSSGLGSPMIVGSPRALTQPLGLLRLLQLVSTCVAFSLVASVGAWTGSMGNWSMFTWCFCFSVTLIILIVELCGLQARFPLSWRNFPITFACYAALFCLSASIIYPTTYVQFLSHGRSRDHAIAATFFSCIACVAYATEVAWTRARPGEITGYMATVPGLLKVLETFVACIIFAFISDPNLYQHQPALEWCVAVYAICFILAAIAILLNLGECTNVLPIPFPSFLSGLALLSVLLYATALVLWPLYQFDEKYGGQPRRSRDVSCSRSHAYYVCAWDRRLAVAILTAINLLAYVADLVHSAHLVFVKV

percent change in apoptotic human eosinophils (Siglec-8+, Annexin V/PI, flow cytometry, 16 h with SP-A) with pre-treatment using anti-MYADM (Invitrogen PA1-41578) compared to SP-A only: 22.5%
Substance: Surfactant protein A (SP-A), preparation genotyped as homozygous for Q (Q/Q) at position 223 of SP-A2 (from UniProt Q8IWL2 21-248; Q8IWL1 21-248) (complex)
